Source: the nanobody polyreactivity screen of Harvey et al. (2022)

Assay: yeast display, Sf9 membrane polyspecificity reagent, FACS + sequencing; frameworks hold sequencing errors
Procedure, shortened: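 A nanobody's polyreactivity label depends on the gate it was sorted from. Yeast display cells were stained with 10% biotinylated, detergent-solubilized Sf9 membrane reagent for 1 hour at 4 °C, enriched on streptavidin microbeads and sorted by FACS. The low and high (top ~1%) gates were set on anti-HA fluorescence for expression and streptavidin fluorescence for reagent binding.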

Row | Sequence | polyreactivity (PSR sort gate)
1 | QDQLVESGGGLLQAGASLRLSCAASGFIFDSYAIGWDRQAPGKERELVAAITSSGSSTYYADSVKGRFTISRDNAKNTVYLQMNSLKPEDTAVYYCNAVYSATVVAWRFGYWGQGTQVTVSS | high polyreactivity
2 | QVQLVESGGGLVQAGGSLRLSCAASGSTFIGYAMGWYRQAPGKDRELVAAITRSGGRTYYADSVKGRFTISRDNAKNTVYLQMNSLKPEVSAVYYCAARVKGQWNTYDYWGQGTQVTVSS | high polyreactivity
3 | QVQLVESGGGLVQAGGSLRLSCAASGGIFTQYVMGWYRQAPGKERELVAAINWSGGSTTYAYSVKGRFTISRDNAKNTVYLQMNSLKPEVTAVYYCAAYSYREFYYWGQGTQVTVSS | high polyreactivity
4 | QVQLVESGGGLVQAGGRLRLSCAASGSIFDIYAMGWYRQAPGKERELVASIRRRGGSTYYADSVKGRFTISRDNAKNTVYLQKNSLKPEDTAVYYSNARRVWLRTTGTNWPERGYWGQGTQVTVSS | high polyreactivity
5 | QVQLVESGGGLVQAGGSLRLSCAASGIIFPNYAMGWYRQAPGKERELFAAITWRGGGTYYADSVKGRFTISRDNAKNTVYLQMNSLKPEDTAVYYCAAQKAYPRRYYGYKWEYYYWGQGSQVTVSS | high polyreactivity
6 | QVQLVESGGGLVQAGGSLRLSCAASGRIFFGYAMGWYRLAPGKERELVAAISYGGGRTYYADSVKGRFTISRDNAKNTVSLQMNSLKPEDTAVDYCNKRVTGGSWSPGHYRYNYWGQGSQVTVSS | high polyreactivity
7 | QDQLVESGGGLVQAGGSLRLSCAASGSIFFLYAMGWYRQAPGKERELVAAIRLSGGSTYYADSVKGRFTISRDNAKNTVYLQMNSLKPEDTAVYYCAAESAAASAVYSVEYDYWGQGTQVTVSS | low polyreactivity
8 | QVQLVESGGGLVQAGGSLRLSCAASGRIYSYYARGWYRPAPGKERELVAAISRTGGTTYYADSVKGRFTISRDNAKNTVYLQMNSLKPEDTAVYYCAASGGYRPHRYQIGDYDYWGQGTQVTVSS | high polyreactivity
9 | QVQLVESGGGLVQAGGSLRLSCSASGGTFRYYTMVWYRKAPGKERELVAAITRGGRTYYADSVKGRFTISRDNAKNTVYLQMNSLKPEDTAVYYCAAVRPRSPVSYENDYWGQGTQVTVSS | high polyreactivity
10 | QVQLVESGGGLVQAGGSLRLSCAASGRIFYYYAMGWYRQAPGKEREFVAAISQRGGSTSYADSVKGRFTISRDNAKNTVYLQMNSLKPEDTAVYYCAAEYYLRVSGRTYVTSHDYWGQGTQVTVSS | high polyreactivity
11 | QVQLVESGGGLVQAGGSLRLSCAASGRIFSINAMGWYRQAPGKEREFVATISDRGSTTSYADSVKGRFTISGDNAKNTVDLQMNSLKPDDTAVYYCAARSYYRYDYWGQGTQVTVSS | high polyreactivity
12 | QVQLVESGGGLVQAGGSLRLSCAASGSTFVRNGMGWYRQSPGKVRELVASISGRGGSTYYADSVKGRFTISRDNAKNTVYLQMNSLKPEDTAVYYCAARKQRGGGPTFDYWGQGTQVTVSS | high polyreactivity
13 | QVQLVESGGGLVQAGGSLRLSCAASGRTLPPNDMGWYRQAPGKERELVAAITRSGGRTYYADSVKGRFTISRDNAKNTVYLQMNSLKPEDTAVYYCATYNPPYSDYSRYNYWGQGTQVTVSS | high polyreactivity
14 | QVQLVESAGGLVQAGGSLRLSCAASGSIFPTNTMGWYRQAPGKERELVATIRKSSGRTYYADSVKGRFTISRDNAKNTVYLQMNSLKPEDTAVYYCNARRYSGALRYDYWGQGTQVTVSS | high polyreactivity
15 | QVQLVESGGGLVQAGGSLRLSCAASGRIFTRYAMGWNRQAPGKETELGAAITASGGRTYYADSVKGRFTISRDNAKNTVYLQMNSLKPEDTAVYYCAATYHRYYETQDSYDYWGQGTQLTVSS | high polyreactivity
16 | QVQLEESGGGLVQAGGSLRLSCAASGSTFYEYAMGWYRQAPGKERELVAAITTVGSTNYADSLKGRFTISRDNAKNTVYLQMNSLKPEDTAVYYCNKRPVILYDYWGLGTQVTVSS | low polyreactivity
17 | QVQLVESGGGLVQAGGSLRLSCAASGRTFPFYAMGWYRQAPGKERELVADITSSGGSTYYADSVKGRFTISRDNAKNTVYLQMNSLKPEDTAVYFCNSFRGAQGSDAYDWGQGTQVTVSS | low polyreactivity
18 | QVQLVESGGGLVQAGGSLRLSCAASGRIFAGYALGWYRPAPGKERELVATSTRGGSTNYADSVKRPFTISRDNAKNTVYLQMNSLKPEDTAVYYCAAPYSSYKVRPYDYWGQGTQVTVSS | low polyreactivity
19 | QVQLVESGGGLVQAGGSLRLSCAASGSIFARYAMGWYRQAPGKERELVAAISSNSASTYYADSVKGRFTISRDNAKNTVYLQMNSLKPEDTAVYYCATAYRSYWLTDYSGQGTQVTVSS | low polyreactivity
20 | QVQLVESGGGLVQAGGSLRLSCAASGRTFGSNAMGWYRQAPGKERELVAAITSGGGTYYADSVKGRFTISRDNAKNTVYLQMNSLKPEDTAVYYCNKLGTSFRRDYGSWGQGTQVTVSS | low polyreactivity
21 | QVQLVESGGGLVQAGGSLRLSCAASGSIFWSNARGWYRQAPGKERELVATIDDDVGSTYYADSVKGRFTISRDNAKNTVYLQMNSLKPEDTAVYYCAADSVYYVMPYEYWGQGTQVTVSS | low polyreactivity
22 | QVQLVESGGGLVQAGGSLRLSCAASGFIFRSNAMGWYRQAPGKEREFVAAISSRGGSTTYADSVKGRFTISRDNAKNSVYLQMNSLKPEDTAVYYCARDWYYYPQYRQRYYYWGQGTQVTVSS | high polyreactivity

Row | Sequence | polyreactivity (PSR sort gate)
23 | QVQLVESGGGLVQAGGSLRLSCAASGSIFRWYAMGWYRQAPGKERELVAGITRGGRTNYADSVKGRFTISRDNAKNTVYLQMNSLKPEDTAVYYCAKVSRSKQKFDYWGQGTQVTVSS | high polyreactivity
24 | QVQLVESGGGLVQAGGSLRLTCAASGRIFTRYMGWYRQAPGKERELVATINWSGGSTYYADSVKGRFTISRDNEKNTFYLQMNSLKPEDTAVYYCNARNVHFYYVQYNGAKIFDYWGQGTQVTVSS | low polyreactivity
25 | QVQLVESGGGLVQAGGSLRLSCAASGSIFNSYAMGWYIQAPGKERELFADITSSGGSTYYADSVKGRFTISRDNAKNTVYLQMNCLKPEDTAVYYCAASSPAFYGLRYNYWGQGTQVTVSS | low polyreactivity
26 | QVQLVESGGGLVQAGGSLRLSCAASGFTIRQYAMGWYRQAPGKERELVAAISGRGGTTYYADSVKGRFTISRDNAKNTVYLQMNSLKPEDTAVYYCAARTFDRGKIPPPYDYWGQGTQVTVSS | high polyreactivity
27 | QVQLVESGGGLVQAGGSLRLSCAASGSTFYDYAMGWYRQAPGKERELVAAINGNGDSTYYADSVKGRFTISRDNAKNTVYLQMNSLKPEDTAVYYCAASGYRRYYGYDYWGQGTQVTVSS | low polyreactivity
28 | QVQHVESAGGLVQAGGSLRLSCSASGSIFYFYAMGWSRQAPGKERELVATITSSGSTNYADSVKGRFTISRDNAKNTVYLQMNSLKPEDTAVYYCNVDVISLKPYVSSYFAIKYDYWGQGTQVTVSS | low polyreactivity
29 | QVQLVESGGGLVQAGGILRLSCAASGSIFLGNAMGWYRQAPGKERELVAVINSGGDTNYADSVKGRFTISRDNAKNTVYLQMNSLKPEDTAVYYCARRKGKWDSYGGWGQGTQETVSS | low polyreactivity
30 | QVQLVESGGGLVQAGGSLRLSCAASGFICGYNAMGWYRQAPGKERELVASINWSGGRTYYADSVKGRFTISRDNAKITVYLQMNSLKPEHTAVYYCNADGSRRYNYWGQGTQVTVSS | low polyreactivity
31 | QVQLVESGGGLVQAGGSLRLSCAASGSIFFRYAMGWYRQAPGKERELVATIRSSGGRTHYADSVKGRFTISRDNAKNTVYLQMHSLKPEDTAVYYCHYGVYQYPQDYDYWGQGTQVTVSS | low polyreactivity
32 | QVQLVESGGGLVQAGGSLRLSCAASGFTFRRNAMGWYRQAPGKEWEFVAAITGRGTGTYYADSVKGRFTISRDNAKNTVYLQMYILKPEDTAGYYCNDDPVRYLFNRYDYWGQGTQVTVSS | high polyreactivity
33 | QVQLVESGGGLVQARGSLRLSCAASGSTFSYYTMGWYREAPGKERELVAAITRRGDSTYADSVKGRFTISRDNAMNTVYLQLNSLKPEDTAVYYFAADDYVGVSGMDYWGQGTQVTVSS | low polyreactivity
34 | QVQLVESGGGLVQAGGSLRLSCAASGGTFYVKDMAWYRQAPWNERDLVATITYSGTSTYYADSVKGRFTISRDNAKNTVYLQMKSLKPEDTAVYYCATDVLLYFEPVNLDYWGQGTQVTVSS | low polyreactivity
35 | QVQLVESGGGLVQAGGSLRLSCDASGIIFTFYTMGWYRQAPGKERELVAAITWSGGSTNYADSVKGRFTISRDNAKNTVYLQMNSLKPEDTAVYYCAAQGYPQSPPWEDYWGQGTQVTVSS | low polyreactivity
36 | QVQLVESGGGLVQAGGSLRLSCAASGRTFTRYAMGWSRQAPGKERELVAAITSTGSTYYADSVKGRFTISRDNAKNTVYLQMNSLKPEDTAVYYCNKVGIRYYYGYDYWGQGTQVTVSS | high polyreactivity
37 | QVQLVESGGGLVQAGGSLRLSCAASGFTFGGNVMGWYRQAPGKERELVAAIRGTGGNTYYADSVKGRFTISRDNAKNTVYLQMNSLKPEDTAVYYCAAAQRELPTVRRNYWGQGTQVTVSS | high polyreactivity
38 | QVQLVESGGGLVQAGGSLRLSCAASGRIFAAYAMGWYRQAPGKERELVDAISSTGGTTYYADSVKGRFTISRDNAKNTVYLQMNSLKPEDTAVYYCATTVIVTKGSWHYSYDYWGQGTQVTVSS | low polyreactivity
39 | QVQLVESGGGLVQAGGSLRLSCAASGRIFVLYTMGWYRQAPGKERELVAAISRRGGNTNYADSVKGRFTISRDNAKNTVYLQMNSLKPEDTAVYFCNARWTGARYYYYPMDYWGQGTQVTVSS | high polyreactivity
40 | QVQIVESGGGLVQAGGSLRLSCAASGSIFASYTMGWYRQAPGKERELGATIRRTGSTYYADSVKGRFTISRDNAKNTVYLQMNSLKPDDTAVYYCAAGLRRKQGLTSGYEYGGQGTQVTVSS | high polyreactivity
41 | QVQLVESGGGLVQAGGSLRLSCAASGITFAGYTMGWYRQAPGKERELVAAISWRTGSTYYADSVKGRFTISRDTAKNTVYLQMNSLKPEDTAVYYCAARVPSPYVATYYYWGQGTQVTVSS | high polyreactivity
42 | QVQHVESGGRLVQAGGSLRLSCAPSGFIFSKYAMGWYRQAPGKERELVAAITRSGGRTYYADSVKGRFTISRDNAKNTVYLQMNSLKPEDTAVYYCAASWLYFGRDYWGQGTQVTVSS | high polyreactivity
43 | QVQLVESGGGLVQAGGSLRLSCAATGSTFHNYAMGWYRQAPGKERELGAGISVRGGGTYYADSVKGRFTISRDNAKNTVYLQMNSLKPEDTAVYYFAKRSRYYYRYDYWGQGTQVTVSS | high polyreactivity
